Experimental findings from patent publication US20060264369 are described below.

The series deals with von Willebrand factor full length (Homo sapiens) (UniProt P04275). The series can be described thus: filter. Conditions: 3'-idT.

Turning to “GGCGTGCAGTGCCGGCCGTGCGGTGCCTCCGTCACGCC [ARC1029]”, the dissociation constant Kd (in general, the concentration at which binding is half-saturated) (internal PEG spacer after GGCGTGCAGTGCC, DPBS, 0.1 mg/mL BSA, RT) was determined as 1.4 nM. In other words, the single-digit nanomolar range.

Where the note is “2'-OMe/deoxy composite, single PS, internal PEG, 14.1% bound at 100 nM vWF”, “GCGUGCAGUGCCGGCCGTGCGGTGCCUCCGUCACGC [ARC1527]” showed a dissociation constant (Kd) of 3.4 nM. In other words, the single-digit nanomolar range.

In turn, “GCGTGCAGTGCCTAGGCCGTGCGGTGCCTCCGTCACGCC [ARC1028]” gave a Kd (internal PEG spacer after GCGTGCAGTGCCT, DPBS, 0.1 mg/mL BSA, RT) of 1.1 nM.

As to “CGUGCAGUGCCGGCCGTGCGGTGCCUCCGUCACG [ARC1531]”, the Kd (2'-OMe/deoxy composite, single PS, internal PEG, 20.0% bound at 100 nM vWF) came to 1.5 nM.

For the sequence “CGUGCAGUGCCGGCCGTGCGGTGCCUCCGUCACG [ARC1532]”, the Kd (2'-OMe/deoxy composite, single PS, internal PEG, 19.3% bound at 100 nM vWF) is 2.6 nM.

“GCGUGCAGUGCCGGCCGTGCGGTGCCUCCGUCACGC [ARC1528]” had a dissociation constant (Kd) (2'-OMe/deoxy composite, single PS, internal PEG, 10.2% bound at 100 nM vWF) of 4.2 nM.

As to “CGGCCGTGCGGTGCCUCCGUCACGUGCAGUGCCG [ARC1533]”, the dissociation constant Kd (2'-OMe/deoxy composite, single PS, internal PEG, 31.7% bound at 100 nM vWF) worked out at 4 nM.
